Molecular target: T1, Aβ40 synthetic peptide (human, UniProt P05067 672-711)
T1 construct: β amyloid, the isoform ending at the 40th amino acid (Aβ40), cut product of the amyloid precursor protein; numbers count on: the Aβ peptide; Pre-incubated at 16.2 uM at 37 C for 2 h before mixing 1:1 (volume) with amylin and incubating 24 h at 37 C; also called β amyloid; human Aβ40; source: synthetic peptide; bought: Anaspec (AS-24235)
Experiment: ELISA; amylin-Aβ sandwich ELISA on solutions of peptides co-incubated at 37 C for 24 h in PBS with 0.05% sodium azide (30 uM amylin and 16.2 uM Aβ mixed 1:1); capture by the polyclonal anti-amylin P2 antibody, detection by an HRP-conjugated anti-Aβ antibody
Conditions: both partners purified

- binding result: binds
B1: human amylin synthetic peptide (peptide, UniProt P10997 34-70, looked up)
peptide: KCNTATCATQRLANFLVHSSNNFGAILSSTNVGSNTY
notes: Amylin (islet amyloid polypeptide), human, synthetic peptide; Pre-incubated at 30 uM in PBS with 0.05% sodium azide at 37 C for 5 h before mixing with Aβ40; also called islet amyloid polypeptide; source: synthetic peptide; bought: Anaspec (AS-60254-1)

Reference: article PMC10192925, “Rapid, scalable assay of amylin-β amyloid co-aggregation in brain tissue and blood” (The Journal of Biological Chemistry, 2023)
